From patent publication US20250242041A1 (Seagen, published 2025)

T1: human αvβ6 on 293F:huβ6 cells (human, UniProt P06756 31-1048; P18564 22-788)
T1 chain 1: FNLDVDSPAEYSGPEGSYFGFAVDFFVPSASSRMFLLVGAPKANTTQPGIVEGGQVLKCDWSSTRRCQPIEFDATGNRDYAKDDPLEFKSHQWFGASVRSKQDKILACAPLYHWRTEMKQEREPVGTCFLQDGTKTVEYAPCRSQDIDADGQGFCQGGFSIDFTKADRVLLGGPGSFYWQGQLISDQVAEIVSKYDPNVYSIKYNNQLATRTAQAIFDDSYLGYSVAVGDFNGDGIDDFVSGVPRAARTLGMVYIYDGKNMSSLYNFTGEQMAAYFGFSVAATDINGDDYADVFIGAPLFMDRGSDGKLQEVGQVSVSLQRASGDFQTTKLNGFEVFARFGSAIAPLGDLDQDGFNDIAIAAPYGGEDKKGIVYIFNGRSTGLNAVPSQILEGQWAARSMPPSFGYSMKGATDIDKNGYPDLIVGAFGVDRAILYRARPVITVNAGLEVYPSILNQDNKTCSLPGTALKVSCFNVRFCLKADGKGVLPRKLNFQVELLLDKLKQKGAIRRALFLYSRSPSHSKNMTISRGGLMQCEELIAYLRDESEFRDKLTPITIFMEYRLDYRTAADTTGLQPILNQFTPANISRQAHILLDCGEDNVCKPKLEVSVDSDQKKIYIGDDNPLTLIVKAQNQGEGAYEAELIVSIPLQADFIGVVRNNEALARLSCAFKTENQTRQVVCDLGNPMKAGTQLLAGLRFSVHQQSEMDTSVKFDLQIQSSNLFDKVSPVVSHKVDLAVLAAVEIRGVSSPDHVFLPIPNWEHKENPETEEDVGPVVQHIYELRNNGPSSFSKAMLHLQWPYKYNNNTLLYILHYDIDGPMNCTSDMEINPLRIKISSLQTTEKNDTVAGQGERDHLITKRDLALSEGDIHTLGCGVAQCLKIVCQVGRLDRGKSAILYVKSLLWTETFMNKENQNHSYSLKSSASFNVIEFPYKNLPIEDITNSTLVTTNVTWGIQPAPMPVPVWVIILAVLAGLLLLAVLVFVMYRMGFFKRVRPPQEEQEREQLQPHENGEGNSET
T1 chain 2: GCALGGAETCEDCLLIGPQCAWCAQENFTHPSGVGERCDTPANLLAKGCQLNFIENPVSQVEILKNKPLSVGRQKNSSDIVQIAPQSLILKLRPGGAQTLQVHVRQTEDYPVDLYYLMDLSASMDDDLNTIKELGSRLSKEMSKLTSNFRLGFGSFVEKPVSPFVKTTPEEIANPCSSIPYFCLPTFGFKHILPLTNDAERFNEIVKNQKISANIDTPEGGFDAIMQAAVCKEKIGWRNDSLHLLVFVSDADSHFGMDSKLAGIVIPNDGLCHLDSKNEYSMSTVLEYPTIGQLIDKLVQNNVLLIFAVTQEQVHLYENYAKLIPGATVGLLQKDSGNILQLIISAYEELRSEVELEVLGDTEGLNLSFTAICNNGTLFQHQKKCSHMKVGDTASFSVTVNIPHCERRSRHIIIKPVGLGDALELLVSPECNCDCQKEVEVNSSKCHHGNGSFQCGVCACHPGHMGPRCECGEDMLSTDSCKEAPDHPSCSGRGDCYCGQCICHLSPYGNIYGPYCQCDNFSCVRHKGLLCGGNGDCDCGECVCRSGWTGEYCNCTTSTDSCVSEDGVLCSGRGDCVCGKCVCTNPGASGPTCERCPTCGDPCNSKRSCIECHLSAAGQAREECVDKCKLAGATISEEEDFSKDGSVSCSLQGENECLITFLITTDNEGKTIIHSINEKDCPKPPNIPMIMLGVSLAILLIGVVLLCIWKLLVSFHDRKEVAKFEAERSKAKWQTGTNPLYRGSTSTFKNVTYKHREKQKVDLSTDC


Target: T1, human αvβ6 on 293F:huβ6 cells
Assay: competition binding on 293F cells; 2nM m2A2-AF647 competitor

EC50 [nM]	Binder
9	h2A2 HALC (antibody, V domains shown) VH: QFQLVQSGAEVKKPGASVKVSCKASGYSFTDYNVNWVRQAPGQGLEWMGVINPKYGTTRYNQKFKGRVTMTRDTSTSTVYMELSSLRSEDTAVYYCTRGLNAWDYWGQGTLVTVSS VL: DIQMTQSPSSLSASVGDRVTITCGASENIYGALNWYQQKPGKAPKLLIYGATNLATGVPSRFSGSGSGRDYTFTISSLQPEDIATYYCQNVLTTPYTFGQGTKLEIKR
6	h2A2 HCLF (antibody, V domains shown) VH: QFQLVQSGAEVKKPGASVKVSCKASGYSFTDYNVNWVRQAPGQGLEWIGVINPKYGTTRYNQKFKGRATLTVDKSTSTAYMELSSLRSEDTAVYYCTRGLNAWDYWGQGTLVTVSS VL: DIQMTQSPSSLSASVGDRVTITCQASENIYGALNWYQQKPGKAPKLLIYGATNLATGVPSRFSGSGSGTDYTFTISSLQPEDIATYYCQNVLTTPYTFGQGTKLEIKR
3	h2A2 HCLC (antibody, V domains shown) VH: QFQLVQSGAEVKKPGASVKVSCKASGYSFTDYNVNWVRQAPGQGLEWIGVINPKYGTTRYNQKFKGRATLTVDKSTSTAYMELSSLRSEDTAVYYCTRGLNAWDYWGQGTLVTVSS VL: DIQMTQSPSSLSASVGDRVTITCGASENIYGALNWYQQKPGKAPKLLIYGATNLATGVPSRFSGSGSGRDYTFTISSLQPEDIATYYCQNVLTTPYTFGQGTKLEIKR
5	h2A2 HALE (antibody, V domains shown) VH: QFQLVQSGAEVKKPGASVKVSCKASGYSFTDYNVNWVRQAPGQGLEWMGVINPKYGTTRYNQKFKGRVTMTRDTSTSTVYMELSSLRSEDTAVYYCTRGLNAWDYWGQGTLVTVSS VL: DIQMTQSPSSLSASVGDRVTITCQASENIYGALNWYQQKPGKAPKLLIYGATNLADGVPSRFSGSGSGRDYTFTISSLQPEDIATYYCQNVLTTPYTFGQGTKLEIKR
14	h2A2 HALF (antibody, V domains shown) VH: QFQLVQSGAEVKKPGASVKVSCKASGYSFTDYNVNWVRQAPGQGLEWMGVINPKYGTTRYNQKFKGRVTMTRDTSTSTVYMELSSLRSEDTAVYYCTRGLNAWDYWGQGTLVTVSS VL: DIQMTQSPSSLSASVGDRVTITCQASENIYGALNWYQQKPGKAPKLLIYGATNLATGVPSRFSGSGSGTDYTFTISSLQPEDIATYYCQNVLTTPYTFGQGTKLEIKR
12	h2A2 HALD (antibody, V domains shown) VH: QFQLVQSGAEVKKPGASVKVSCKASGYSFTDYNVNWVRQAPGQGLEWMGVINPKYGTTRYNQKFKGRVTMTRDTSTSTVYMELSSLRSEDTAVYYCTRGLNAWDYWGQGTLVTVSS VL: DIQMTQSPSSLSASVGDRVTITCGASENIYGALNWYQQKPGKAPKLLIYGATNLADGVPSRFSGSGSGTDYTFTISSLQPEDIATYYCQNVLTTPYTFGQGTKLEIKR
5	h2A2 HCLD (antibody, V domains shown) VH: QFQLVQSGAEVKKPGASVKVSCKASGYSFTDYNVNWVRQAPGQGLEWIGVINPKYGTTRYNQKFKGRATLTVDKSTSTAYMELSSLRSEDTAVYYCTRGLNAWDYWGQGTLVTVSS VL: DIQMTQSPSSLSASVGDRVTITCGASENIYGALNWYQQKPGKAPKLLIYGATNLADGVPSRFSGSGSGTDYTFTISSLQPEDIATYYCQNVLTTPYTFGQGTKLEIKR
46	h2A2 HALH (antibody, V domains shown) VH: QFQLVQSGAEVKKPGASVKVSCKASGYSFTDYNVNWVRQAPGQGLEWMGVINPKYGTTRYNQKFKGRVTMTRDTSTSTVYMELSSLRSEDTAVYYCTRGLNAWDYWGQGTLVTVSS VL: DIQMTQSPSSLSASVGDRVTITCGASENIYGALNWYQQKPGKAPKLLIYGATNLADGVPSRFSGSGSGRDFTFTISSLQPEDIATYYCQNVLTTPYTFGQGTKLEIKR
